From paper PMC12485133 come the findings set out here.

Assay [1] addresses N-myristoylated human Arf1 bound to GTPγS, anchored on nanodiscs (myrArf1·GTPγS) (human) (UniProt P84077).
Assay [2] has the same target. Nature of the assay: not stated; binding of PH variants and Arf variants compared with wild type (Fig. SI8 and Table SI1); the method is not given.

N-myristoylated human Arf1 bound to GTPγS, anchored on nanodiscs (myrArf1·GTPγS) (human), sequence (P84077 whole entry): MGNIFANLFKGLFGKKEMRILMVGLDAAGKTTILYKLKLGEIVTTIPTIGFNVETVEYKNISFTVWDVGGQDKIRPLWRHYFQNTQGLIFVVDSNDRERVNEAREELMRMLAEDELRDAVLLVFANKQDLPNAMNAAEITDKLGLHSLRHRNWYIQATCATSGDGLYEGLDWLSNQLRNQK

With “ASAP1 PH domain Lys391Ala (from UniProt Q9QWY8 325-451) (domain or fragment)”, the fold decrease in GAP activity compared with wild type (C50 of PZA, Fig. 7C) in assay [1] stood at 100 fold. Also, the fold reduction of binding against wild type in assay [2] worked out at 2 fold.
